Tests used:
[1] = biological target: T1, recombinant IL-3Rα ectodomain (human, UniProt P26951 19-305); assay: ELISA on recombinant IL-3Ra ectodomain (lower right panel)
T1 construct: extracellular domain; also called recombinant IL-3Ra; biotinylated-IL-3Rα ectodomain
T1 sequence (looked up): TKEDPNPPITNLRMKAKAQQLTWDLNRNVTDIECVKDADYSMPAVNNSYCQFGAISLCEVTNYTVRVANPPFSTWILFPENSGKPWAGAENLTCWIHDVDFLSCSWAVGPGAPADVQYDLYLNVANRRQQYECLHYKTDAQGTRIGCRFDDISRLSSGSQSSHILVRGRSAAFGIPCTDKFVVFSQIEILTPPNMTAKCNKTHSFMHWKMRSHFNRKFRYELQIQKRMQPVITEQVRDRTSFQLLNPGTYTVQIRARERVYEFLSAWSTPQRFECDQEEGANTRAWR

[2] = biological target: human CXCR4 (on cells, viral lipoparticles or membrane extracts) (human, UniProt P61073 1-352); assay: cell-based or functional assay
Chain of human CXCR4 (on cells, viral lipoparticles or membrane extracts) (P61073 whole entry, the tested form may be a part): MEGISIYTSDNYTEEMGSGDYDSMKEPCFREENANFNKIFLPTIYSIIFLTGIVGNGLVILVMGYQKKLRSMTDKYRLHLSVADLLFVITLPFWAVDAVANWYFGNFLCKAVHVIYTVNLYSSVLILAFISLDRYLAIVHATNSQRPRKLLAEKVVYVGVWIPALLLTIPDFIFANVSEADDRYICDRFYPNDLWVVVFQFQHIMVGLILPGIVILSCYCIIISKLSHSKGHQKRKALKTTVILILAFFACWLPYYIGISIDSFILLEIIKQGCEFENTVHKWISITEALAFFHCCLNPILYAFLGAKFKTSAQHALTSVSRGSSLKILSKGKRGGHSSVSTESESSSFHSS

[3] = biological target: T1, recombinant IL-3Rα ectodomain; assay: ELISA on recombinant IL-3Ra ectodomain (panel 'IL-3Ra ELISA', lower left)
[4] = biological target: CXCR4 and CD4 co-expressed on cells (MOLM-13, THP-1, MT-4, PBMC; Jurkat CD4 low) (human, UniProt P61073 1-352; P01730 26-458); assay: cell-based or functional assay
Chain of CXCR4 and CD4 co-expressed on cells (MOLM-13, THP-1, MT-4, PBMC; Jurkat CD4 low) (P61073 whole entry, chain 1 of 2, other chains not shown): as the sequence (P61073 whole entry, the tested form may be a part) above

[5] = biological target: T2, human IL-3Rα (CD123), cell-expressed (human, UniProt P26951 19-378); assay: flow cytometry on Molm-13 cells; EC50(M) printed in the legend box beside the curves
T2 construct: whole, on cells; also called IL-3Ra; Hek-IL-3Rα
T2 sequence (P26951 19-378): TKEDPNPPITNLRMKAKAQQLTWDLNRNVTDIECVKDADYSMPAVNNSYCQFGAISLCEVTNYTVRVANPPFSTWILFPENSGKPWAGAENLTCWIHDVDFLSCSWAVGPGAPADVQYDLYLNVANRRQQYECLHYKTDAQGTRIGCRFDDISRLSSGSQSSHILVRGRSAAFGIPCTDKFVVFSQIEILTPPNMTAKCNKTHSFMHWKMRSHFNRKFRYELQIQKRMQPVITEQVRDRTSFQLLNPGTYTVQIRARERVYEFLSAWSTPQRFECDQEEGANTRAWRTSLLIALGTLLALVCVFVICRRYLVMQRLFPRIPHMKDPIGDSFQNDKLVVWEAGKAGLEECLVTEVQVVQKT

[6] = biological target: T2, human IL-3Rα (CD123), cell-expressed; assay: FACS, MOLM-13 cells
[7] = biological target: T1, recombinant IL-3Rα ectodomain; assay: SPR ProteOn, immobilised IL-3Rα ectodomain
[8] = biological target: T1, recombinant IL-3Rα ectodomain; assay: competition ELISA, coated mAb 7G3 + biotinylated IL-3Rα ectodomain
[9] = biological target: T3, human IL12Rβ1, cell-expressed (human, UniProt P42701 24-662); assay: flow cytometry on isolated CD8+ T cells of donor D863, anti-Flag detection
T3 construct: whole, on cells; in the context of the heterodimeric receptor; also called IL12Rb1

[10] = biological target: T4, recombinant human CEACAM5 (human, UniProt P06731 35-685); assay: SPR Biacore T100, immobilised hCEACAM-5
T4 construct: also called hCEACAM-5; R&D Systems 4128-CM
T4 sequence (looked up): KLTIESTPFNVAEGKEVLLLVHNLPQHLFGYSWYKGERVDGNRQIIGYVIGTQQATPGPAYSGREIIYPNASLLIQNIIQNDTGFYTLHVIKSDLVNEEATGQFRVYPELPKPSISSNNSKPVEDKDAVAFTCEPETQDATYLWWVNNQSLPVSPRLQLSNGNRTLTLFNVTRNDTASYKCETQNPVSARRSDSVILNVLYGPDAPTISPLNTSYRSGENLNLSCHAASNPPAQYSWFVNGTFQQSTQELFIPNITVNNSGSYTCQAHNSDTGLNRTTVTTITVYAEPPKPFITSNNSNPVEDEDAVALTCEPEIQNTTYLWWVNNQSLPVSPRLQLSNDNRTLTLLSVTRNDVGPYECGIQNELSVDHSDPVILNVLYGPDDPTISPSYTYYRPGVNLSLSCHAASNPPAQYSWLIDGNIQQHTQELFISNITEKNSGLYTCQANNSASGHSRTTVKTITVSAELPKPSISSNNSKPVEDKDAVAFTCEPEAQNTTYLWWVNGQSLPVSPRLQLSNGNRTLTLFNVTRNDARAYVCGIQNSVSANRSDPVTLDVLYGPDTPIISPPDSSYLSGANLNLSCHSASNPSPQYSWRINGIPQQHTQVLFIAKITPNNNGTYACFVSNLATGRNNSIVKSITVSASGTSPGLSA

B1: 14D09-35GS-57A07 (bispecific antibody)
chain: EVQLVESGGGLVQAGGSLRLSCVASGISSSKRNMGWYRQAPGKQRESVATISSGGNKDYTDAVKDRFTISRDTTKNTVYLQMNSLKPEDTAVYYCKIEAGTGWATRRGYTYWGQGTLVTVSSGGGGSGGGGSGGGGSGGGGSGGGGSGGGGSGGGGSEVQLVESGGGLVQAGGSLRLSCAASGSIFSGNVMGWYRRQAPGKEREWVAAIASGGSIYYRDSVKGRFTISRDNAKNTVYLQMNSLKPEDTAVYYCNSHPPTLPYWGQGTLVTVSS
notes: also made with FLAG3-His6 in Pichia; also called CXCR4#1-CD123#1; 14D09-57A07
For B1, the “EC50 (read off the curve)” value [1] was ~0.5 nM, the “Fold inc. vs CXCR4#1, Jurkat E6-1” value [2] was 0.69 fold and the “Fold inc. vs CXCR4#1, MOLM-13” value [2] was 2.39 fold. The “IC50, CXCL-12 chemotaxis, Jurkat E6-1” value [2] was 15 nM and the “IC50, CXCL-12 chemotaxis, MOLM-13” value [2] was 3.6 nM.

B2: 57A07-35GS-14D09 (bispecific antibody)
chain: EVQLVESGGGLVQAGGSLRLSCAASGSIFSGNVMGWYRRQAPGKEREWVAAIASGGSIYYRDSVKGRFTISRDNAKNTVYLQMNSLKPEDTAVYYCNSHPPTLPYWGQGTLVTVSSGGGGSGGGGSGGGGSGGGGSGGGGSGGGGSGGGGSEVQLVESGGGLVQAGGSLRLSCVASGISSSKRNMGWYRQAPGKQRESVATISSGGNKDYTDAVKDRFTISRDTTKNTVYLQMNSLKPEDTAVYYCKIEAGTGWATRRGYTYWGQGTLVTVSS
notes: FLAG3-His6 also made; also called CD123#1-CXCR4#1; 57A07-14D09
In the case of B2, the “EC50 (read off the curve)” value [1] is reported as ~0.5 nM, the “Fold inc. vs CXCR4#1, Jurkat E6-1” value [2] is reported as 0.05 fold and the “IC50, CXCL-12 chemotaxis, Jurkat E6-1” value [2] is reported as 210 nM.

B3: 55A01-35GS-14D09 (bispecific antibody)
chain: EVQLVESGGGSVQAGGSLRLSCTTSGRALNMYVMGWFRQAPGNEREFVAATSSSGGSTSYPDSVKGRFTISRDNAKNTVYLQMNSLKPEDTAAYRCAASPYVSTPTMNILEEYRYWGQGTLVTVSSGGGGSGGGGSGGGGSGGGGSGGGGSGGGGSGGGGSEVQLVESGGGLVQAGGSLRLSCVASGISSSKRNMGWYRQAPGKQRESVATISSGGNKDYTDAVKDRFTISRDTTKNTVYLQMNSLKPEDTAVYYCKIEAGTGWATRRGYTYWGQGTLVTVSS
notes: FLAG3-His6 also made; also called CD123#2-CXCR4#1; 55A01-14D09
In the case of B3, the “Fold inc. vs CXCR4#1, Jurkat E6-1” value [2] is reported as 0.12 fold, the “Fold inc. vs CXCR4#1, MOLM-13” value [2] is reported as 0.03 fold and the “IC50, CXCL-12 chemotaxis, Jurkat E6-1” value [2] is reported as 85 nM. For the same binder, the “IC50, CXCL-12 chemotaxis, MOLM-13” value [2] was 290 nM and the “EC50 (read off the curve)” value [3] was ~1 nM.

B4: 281F12-35GS-57A07 (bispecific antibody)
chain: EVQLVESGGGLVQAGDSLRLSCAASGRAFSRYAMGWFRQAPGKEREFVAAIGWGPSKTNYADSVKGRFTISRDNAKNTVYLQMNTLKPEDTAVYSCAAKFVNTDSTWSRSEMYTYWGQGTLVTVSSGGGGSGGGGSGGGGSGGGGSGGGGSGGGGSGGGGSEVQLVESGGGLVQAGGSLRLSCAASGSIFSGNVMGWYRRQAPGKEREWVAAIASGGSIYYRDSVKGRFTISRDNAKNTVYLQMNSLKPEDTAVYYCNSHPPTLPYWGQGTLVTVSS
notes: FLAG3-His6 also made; also called CXCR4#2-CD123#1; 281F12-57A07
In the case of B4, the “EC50 (read off the curve)” value [1] is reported as ~0.5 nM, the “Fold inc. vs CXCR4#2, Jurkat E6-1” value [2] is reported as 2.55 fold and the “Fold inc. vs CXCR4#2, MOLM-13” value [2] is reported as 12.6 fold. The “IC50, CXCL-12 chemotaxis, Jurkat E6-1” value [2] was 38 nM and the “IC50, CXCL-12 chemotaxis, MOLM-13” value [2] was 6.83 nM.

B5: 03F11-9GS-281F12 (bispecific antibody)
chain: EVQLVESGGGSVQPGGSLTLSCGTSGRTFNVMGWFRQAPGKEREFVAAVRWSSTGIYYTQYADSVKSRFTISRDNAKNTVYLEMNSLKPEDTAVYYCAADTYNSNPARWDGYDFRGQGTQVTVSSGGGGSGGGGSEVQLVESGGGLVQAGDSLRLSCAASGRAFSRYAMGWFRQAPGKEREFVAAIGWGPSKTNYADSVKGRFTISRDNAKNTVYLQMNTLKPEDTAVYSCAAKFVNTDSTWSRSEMYTYWGQGTQVTVSS
For B5, the “IC50, HIV-1 BaL (R5), PBMC” value [4] was > 666 nM, the “IC50, HIV-1 NL4.3 (X4), MT-4” value [4] was 14.9 nM and the “IC50, HIV-1 NL4.3 (X4), PBMC” value [4] was 17 nM. For the same binder, the “IC50, HIV-1 NL4.3 (X4), U87” value [4] was > 3330 nM.

B6: 03F11-25GS-281F12 (bispecific antibody)
chain: EVQLVESGGGSVQPGGSLTLSCGTSGRTFNVMGWFRQAPGKEREFVAAVRWSSTGIYYTQYADSVKSRFTISRDNAKNTVYLEMNSLKPEDTAVYYCAADTYNSNPARWDGYDFRGQGTQVTVSSGGGGSGGGGSGGGGSGGGGSGGGGSEVQLVESGGGLVQAGDSLRLSCAASGRAFSRYAMGWFRQAPGKEREFVAAIGWGPSKTNYADSVKGRFTISRDNAKNTVYLQMNTLKPEDTAVYSCAAKFVNTDSTWSRSEMYTYWGQGTQVTVSS
In the case of B6, the “IC50, HIV-1 BaL (R5), PBMC” value [4] is reported as 383 nM, the “IC50, HIV-1 NL4.3 (X4), MT-4” value [4] is reported as 9.22 nM and the “IC50, HIV-1 NL4.3 (X4), PBMC” value [4] is reported as 8.67 nM. For the same binder, the “IC50, HIV-1 NL4.3 (X4), U87” value [4] was > 3330 nM.

B7: 50F07 (VHH)
VHH: EVQLVESGGGLVQPGGSLRLSCTGSGSTFSINAMGWYRQAPGKQRELVAAITSGGRTNYADSVKGRFTISRDNSKNTVYLQMNSLRPEDTAVYYCNARISAGTAFWLWSDYEYWGLGTLVTVSS
With B7 the EC50 [5] was 66 nM, the EC50 [6] was 14.6 nM and the Kd [7] was 74.2 nM. It also gave a koff [7] of 0.00758 s⁻¹, a kon [7] of 102000 M⁻¹ s⁻¹ and an IC50 [8] of 230 nM.

B8: 55F03 (VHH)
VHH: EVQLVESGGGLVQAGGPLRLSCAASGRTFSSYVMGWFRQAPGKEREFVAAIYWSNGKTQYTDSVKGRFTISGDNAKNTVYLQMNSLNPEDTAVYYCVADKDETGFRTLPIAYDYWGLGTQVTVSS
For B8, the EC50 [5] was 350 nM, the EC50 [6] was 113 nM and the Kd [7] was 115 nM. The koff [7] was 0.00487 s⁻¹ and the kon [7] was 42500 M⁻¹ s⁻¹.

B9: 55B04 (VHH)
VHH: EVQLVESGGGLVQPGGSLRLSCAASGINFRFNSMGWWRRRAPGKEREWVAAITSGDITNYRDSVRGRFTISRDNVKNTVYLQMNTLKLEDTAVYYCNTFPPIADYWGLGTQVTVSS
Binder B9 has an EC50 [5] of 1300 nM, an EC50 [6] of 51.2 nM and a Kd [7] of 15.8 nM. The koff [7] was 0.00794 s⁻¹, the kon [7] was 504000 M⁻¹ s⁻¹ and the IC50 [8] was 55 nM.

B10: 55C05 (VHH)
VHH: EVQLVESGGGLVPAGDSLRLSCVASGRSLNTYTMGWFRQAPGKECEFVAAINWNGVYRDYADSAKGRFTASRDNAMNTVFLQMNSLKPEDTAVYFCATATQGWDRHTEPSDFGSWGLGTQVTVSS
In the case of B10, the EC50 [5] is reported as 4100 nM, the EC50 [6] is reported as 31.2 nM and the Kd [7] is reported as 59 nM. For the same binder, the koff [7] was 0.00741 s⁻¹, the kon [7] was 126000 M⁻¹ s⁻¹ and the IC50 [8] was 190 nM.

B11: 51D09 (VHH)
VHH: EVQLVESGGGLVQPGGSLRLSCAASGSIFSGNTMGWYRQAPGKQRELVAAISSGGSTDYADSVKGRFTISRDNSKNTVYLQMNSLRPEDTAVYYCNAAILLYRLYGYEEGDYWGLGTLVTVSS
Work on B11 yielded an EC50 [5] of 16 nM, an EC50 [6] of 15.3 nM and a Kd [7] of 13.6 nM. It also gave a koff [7] of 0.000516 s⁻¹ and a kon [7] of 37800 M⁻¹ s⁻¹.

B12: cAbLys3 (VHH)
VHH: DVQLQASGGGSVQAGGSLRLSCAASGYTIGPYCMGWFRQAPGKEREGVAAINMGGGITYYADSVKGRFTISQDNAKNTVYLLMNSLEPEDTAIYYCAADSTIYASYYECGHGLSTGGYGYDSWGQGTQVTVSS
notes: also called irrelevant control Nanobody directed to lysozyme
B12: no binding (tested: 250 nM) [9].

B13: CEA#2 (VHH)
VHH: EVQLVESGGGLVQPGGSLRLSCAASGDTYGSYWMGWFRQAPGQGLEAVAAINRGGGYTVYADSVKGRFTISRDNSKNTLYLQMNSLRAEDTAVYYCAASGVLGGLHEDWFNYWGQGTLVTVSS
notes: also called T023200002; humanised variant of NbCEA5
In the case of B13, the Kd [10] is reported as 1.9 nM, the koff [10] is reported as 0.0025 s⁻¹ and the kon [10] is reported as 1.3e+06 M⁻¹ s⁻¹.

Source: US20160251440A1 (Ablynx, published 2016)
